Laboratory results as given in patent US20240076386A1 (Pfizer, published 2024).

T1: cynomolgus monkey E-selectin extracellular domain with 10 His purification tail (cynomolgus monkey, UniProt P16581 22-554 (human entry))
T1 construct: also called cynomolgus E-selectin; truncated cynomolgus monkey E-selectin
T1 chain: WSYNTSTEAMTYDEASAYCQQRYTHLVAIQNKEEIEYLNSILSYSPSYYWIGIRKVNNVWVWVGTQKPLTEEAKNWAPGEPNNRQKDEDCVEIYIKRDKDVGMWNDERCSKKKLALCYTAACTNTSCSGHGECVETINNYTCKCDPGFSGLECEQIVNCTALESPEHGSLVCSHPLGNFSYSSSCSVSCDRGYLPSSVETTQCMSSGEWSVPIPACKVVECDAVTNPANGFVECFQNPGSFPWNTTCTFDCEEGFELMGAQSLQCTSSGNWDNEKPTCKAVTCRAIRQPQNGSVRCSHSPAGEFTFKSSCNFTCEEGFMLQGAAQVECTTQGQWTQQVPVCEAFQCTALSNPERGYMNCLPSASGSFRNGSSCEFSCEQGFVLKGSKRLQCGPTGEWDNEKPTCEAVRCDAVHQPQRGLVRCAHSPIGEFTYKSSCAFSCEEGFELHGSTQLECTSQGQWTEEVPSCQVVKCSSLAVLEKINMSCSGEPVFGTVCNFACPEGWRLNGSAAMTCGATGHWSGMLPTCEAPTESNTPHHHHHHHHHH

T2: recombinant histidine-tagged cynomolgus monkey E-selectin (Sino Biologicals; 190169-C08H) (cynomolgus monkey, UniProt A0A2K5U7H9 22-554)
T2 construct: also called recombinant cynomolgus monkey E-selectin
T2 sequence: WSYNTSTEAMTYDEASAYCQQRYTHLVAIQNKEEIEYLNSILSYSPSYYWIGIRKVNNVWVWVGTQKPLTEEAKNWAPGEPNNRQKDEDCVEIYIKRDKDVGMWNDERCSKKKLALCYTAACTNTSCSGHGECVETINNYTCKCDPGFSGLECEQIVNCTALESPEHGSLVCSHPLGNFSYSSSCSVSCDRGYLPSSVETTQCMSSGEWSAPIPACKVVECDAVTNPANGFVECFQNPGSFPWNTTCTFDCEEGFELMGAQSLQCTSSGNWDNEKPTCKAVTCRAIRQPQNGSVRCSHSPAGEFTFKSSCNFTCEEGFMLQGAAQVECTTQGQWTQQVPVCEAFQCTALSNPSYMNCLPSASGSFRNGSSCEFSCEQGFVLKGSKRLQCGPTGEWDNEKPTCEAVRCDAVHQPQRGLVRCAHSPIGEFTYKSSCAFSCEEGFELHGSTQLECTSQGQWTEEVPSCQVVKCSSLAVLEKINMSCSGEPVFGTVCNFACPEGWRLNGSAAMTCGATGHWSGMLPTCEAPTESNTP

T3: recombinant histidine-tagged human E-selectin (Sino Biologicals; 13025-H08H) (human, UniProt P16581 22-556)
T3 construct: also called recombinant human E-selectin; soluble recombinant human E-selectin
T3 sequence (looked up): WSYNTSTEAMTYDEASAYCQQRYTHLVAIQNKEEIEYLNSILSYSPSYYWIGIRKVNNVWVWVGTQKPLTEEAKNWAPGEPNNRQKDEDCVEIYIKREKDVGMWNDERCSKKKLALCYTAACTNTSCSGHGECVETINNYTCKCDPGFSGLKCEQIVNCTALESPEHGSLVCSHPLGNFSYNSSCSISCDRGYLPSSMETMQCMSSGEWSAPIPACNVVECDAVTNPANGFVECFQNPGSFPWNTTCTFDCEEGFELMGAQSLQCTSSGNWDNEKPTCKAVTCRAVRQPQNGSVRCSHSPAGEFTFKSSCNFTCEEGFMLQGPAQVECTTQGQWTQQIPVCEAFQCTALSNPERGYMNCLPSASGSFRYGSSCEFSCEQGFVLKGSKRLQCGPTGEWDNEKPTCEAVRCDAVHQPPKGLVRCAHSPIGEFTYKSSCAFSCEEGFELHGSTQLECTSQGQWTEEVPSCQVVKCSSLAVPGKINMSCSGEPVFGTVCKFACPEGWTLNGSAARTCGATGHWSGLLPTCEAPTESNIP


Legend:
[1] = target: T1, cynomolgus monkey E-selectin …; test: SPR, antibody captured, E-selectin analyte
Description: To characterize binding of antibodies to human, cynomolgus monkey, and mouse E-selectin, an antibody was diluted to 0.5 μg/mL in HBS-EP+ and captured by the anti-human IgG immobilized on flow cells 2, 3 and 4 for 30 seconds to 1 minute at a flow rate of 10 μL/minute to achieve a capture level of 70 to 300 RU. Flow cell 1 was used as a reference surface. […] HBS-EP+ buffer cycles collected for each captured antibody were used for double-referencing (Myszka D G. J. Mol. Recognition 1999; 12(5):279-84). At the end of each cycle, the entire anti-IgG surface was regenerated by a 30 second pulse of 3 M MgCl₂ and a 30 second pulse of ionic buffer (1.83 M MgCl₂, 0.92 M Urea, 1.83 M Guanidine HCl, pH 7.4) (Andersson K. Analy. Chem. 1999; 71(13): 2475-81). Kinetic assays were conducted at 25° C. at a collection rate of 10 Hertz (Hz) on a BIAcore™ T200 instrument (GE Healthcare). Rate constants and affinities were determined by fitting the data to a 1:1 binding model in BIAcore™ T200 Evaluation software version 3.0 (GE Healthcare).

[2] = target: T2, recombinant histidine-tagged cynomolgus …; test: competition ELISA, His-tagged E-selectin on Ni-NTA plate vs HRP-conjugated sialyl Lewis A
Description: (§1) Recombinant histidine-tagged E-selectin; cynomolgus monkey E-selectin (Sino Biologicals; 190169-C08H) and human E-selectin (Sino Biologicals; 13025-H08H) stock solutions were prepared to a final concentration of 3 μg/mL in phosphate buffered saline (PBS) without calcium and magnesium. One hundred μL per well of the diluted recombinant E-selectin protein was added into a Ni-NTA HisSorb 96 well plate (Qiagen, 35061) and plates were incubated on an orbital shaker at room temperature for 2 hours. Sialyl Lewis A polyacrylamide biotin, a synthetic E-selectin ligand (GlycoTech corporation 01-044), was conjugated to streptavidin HRP (horse radish peroxidase) (Ultra Streptavidin HRP, Thermo Scientific N504) and diluted in assay diluent containing 2 mM calcium chloride (BD OptEIA buffer; BD Biosciences, 555213).
(§2) Following the incubation, the plates were washed 5 times with 200 μL of wash buffer containing 2 mM of calcium chloride (50 mM TRIS [trisaminomethane]; 150 mM sodium chloride, 0.05% polysorbate 20, pH 7.4; 2 mM of calcium chloride). […] The final antibody concentration ranged from 200 nM to 0.09 nM and the final concentration of HRP conjugated Sialyl Lewis A was 5 μg/mL. Plates were washed as mentioned before, and 100 μL per well of 1-Step Ultra TMB substrate (Thermo Scientific, 34028) was added and incubated for 5 minutes at room temperature. Reactions were stopped with 100 μl of 2M sulfuric acid and absorbance read at 450 nm (Spectramax M5e). Data were analyzed and graphed using GraphPad Prism software (Version 8.0.2).

[3] = target: T3, recombinant histidine-tagged human …; test: as above
Description: as §1, §2

Binder	Kd [1] [nM]	koff [1] [s⁻¹]	kon [1] [M⁻¹ s⁻¹]	t½ [1] [s]	IC50 [2] [nM]	IC50 [3] [nM]
anti-E-selectin antibody 0159 chimera (antibody, human IgG1, kappa, V domains shown, rat VH/VL on effector-null human IgG1 and human kappa) VH: EVQLQQSGAELGKPGTSVKLSCKVSGYNIRSTYMHWVSQRPGKGLEWIGRIDPANGNTIYAEKFKRKATLTADTSSNTAYMQLSQLKSDDRAIYFCAMEVRVSFEYWGQGVMVTVSS VL: DIQMTQSPSFLSASVGDRVTINCKASQNINKYLDWYQQKLGEGPKLLIYYTNNLHTGIPSRFSGSGSGTDFTLTISSLQPEDVATYFCLQHDSGYTFGAGTKLELKR	244	0.0374	154000	18.5		
anti-E-selectin antibody 0170 chimera (antibody, human IgG1, kappa, V domains shown, rat VH/VL on effector-null human IgG1 and human kappa) VH: EVQLQQSGAELGKPGTSVKLSCKVSGYSIRSTYMHWVNQRPGKGLEWVGRIDPANGNTIYAERFKNKATLTADTSSNTAYMQLSQLKSDDTAIYFCAVEILGIFDYWGQGVMVTVSS VL: DIQMTQSPSFLSASVGDRVTINCKASQNIDKYLDWYQQKLGEAPKLLMYNTNSLHTGIPSRFSGSGSGTDFTLTISSLQPEDVATYFCLQHNSGYTFGAGTKLELKR	492	0.0564	115000	12.3		
anti-E-selectin antibody 0164 chimera (antibody, human IgG1, kappa, V domains shown, rat VH/VL on effector-null human IgG1 and human kappa) VH: EVQLQQSGAEFGKPGTSVKLSCKVSGYNIRSSYMHWVNQRPGKGLEWIGRIDPANGNTIYAEKFKIKAILTADSSSNTAYMQLSQLKSDDTAIYFCAMDLYSTSEYWGQGVMVTVSS VL: DIQMTQSPSFLSASVGDRVTINCKTSQNINRYLNWYQQKLGEAPKLLIYNANSLQTGIPSRFSASGSGTDFTLTINSLQPEDVATYFCLQDNSWPLTFGSGTKLEIKR	45.4	0.012	265000	57.8	3.29	3.39
optimized anti-E-selectin antibody 1282 (antibody, human IgG1, kappa, V domains shown, effector-null human IgG1, kappa) VH: EVQLVESGGGLVQPGGSLRLSCAASGYAIRSAYMHWVRQAPGKGLEWVARIDPANGNTIYVDSVEGRFTISADNAKNSAYLQMNSLRAEDTAVYYCAMDLYSTSEYWGQGTLVTVSS VL: DIQMTQSPSSLSASVGDRVTITCKTSQNIERYLNWYQQKPGKAPKLLIYAASSLQSGVPSRFSGSGSGTDFTLTISSLQPEDFATYFCLQDNAWPLTFGQGTKVEIKR					3.23	3.39
anti-E-selectin antibody 0039 chimera (antibody, human IgG1, kappa, V domains shown, rat VH/VL on effector-null human IgG1 and human kappa) VH: QVQLKETGPGLVQPTQTLSITCTVSGFSLTGYYMQWVRQTPGKGLEWMGFIRSSGSTEYNSEFKSRLSISRDTSKNQVFLKMNSLKTEDTGVYYCARCPYKYSSFVYVGVMDAWGQGAPVTVSS VL: EIVMTQSPTSMSTSIGERVTLNCKASQTVGINVDWYQQTPGQPPKLLIYGASNRHTGVPDRFTGSGFGRDFTLTISNVEAEDLAVYCCLQYGSIPHTFGPGTKLELKR	45.8	0.00377	82400	184		

Now from value to binder:

Kd [1] [nM]	koff [1] [s⁻¹]	kon [1] [M⁻¹ s⁻¹]	t½ [1] [s]	IC50 [2] [nM]	IC50 [3] [nM]	Binder
3140	0.749	245000	0.93			anti-E-selectin antibody 0180 chimera (antibody, human IgG1, kappa, V domains shown, rat VH/VL on effector-null human IgG1 and human kappa) VH: EVQLQQSGAELGKPGTSVKLSCKVSGYKIRSSYMHWVNQRPGKGLEWIGRIDPANGNTIYGDKFKSKATLTSDTSSNTAYIQLSQLKSDDTAIYFCAIDIGTTFDYWGQGVMVTVSS VL: DIQMTQSPSFLSASVGDRVTINCKASQHINRYLNWYQQKLGEAPKLLIYDANNLQTGIPSRFSGSGSGTDFTLTISSLQPEDVATYFCLQHNSWPNTFGAGTKLELKR
				3.39	3.59	optimized anti-E-selectin antibody 1284 (antibody, human IgG1, kappa, V domains shown, effector-null human IgG1, kappa) VH: EVQLVESGGGLVQPGGSLRLSCAASGYAIRSAYMHWVRQAPGKGLEWVARIDPANGNTIYVESVEGRFTISADNAKNSAYLQMNSLRAEDTAVYYCAMDLYSTSEYWGQGTLVTVSS VL: DIQMTQSPSSLSASVGDRVTITCKTSQNIERYLNWYQQKPGKAPKLLIYAASSLQSGVPSRFSGSGSGTDFTLTISSLQPEDFATYFCLQDNAWPLTFGQGTKVEIKR
				2.91	3.01	optimized anti-E-selectin antibody 1444 (antibody, human IgG1, kappa, V domains shown, effector-null human IgG1, kappa) VH: EVQLVESGGGLVQPGGSLRLSCAASGYAIRSAYMHWVRQAPGKGLEWVARIDPANGNTIYVDSVTGRFTISADNAKNSAYLQMNSLRAEDTAVYYCAMDLYSTSEYWGQGTLVTVSS VL: DIQMTQSPSSLSASVGDRVTITCKTSQNIERYLNWYQQKPGKAPKLLIYAASSLQSGVPSRFSGSGSGTDFTLTISSLQPEDFATYFCLQDNAWPLTFGQGTKVEIKR
				2.74	2.96	optimized anti-E-selectin antibody 1448 (antibody, human IgG1, kappa, V domains shown, effector-null human IgG1, kappa) VH: EVQLVESGGGLVQPGGSLRLSCAASGYAIRSAYMHWVRQAPGKGLEWVARIDPANGNTIYVDSVKERFTISADNAKNSAYLQMNSLRAEDTAVYYCAMDLYSTSEYWGQGTLVTVSS VL: DIQMTQSPSSLSASVGDRVTITCKTSQNIERYLNWYQQKPGKAPKLLIYAASSLQSGVPSRFSGSGSGTDFTLTISSLQPEDFATYFCLQDNAWPLTFGQGTKVEIKR
